According to patent US20250332261A1:

Biological target: human epidermal growth factor receptor 1 (EGFR1) (human) (UniProt P00533)
Assay: tritium-labelled compound 5 µg/ml, 3 h +37 °C, FaDu cells, scintillation counting of lysate; internalized plus surface-bound; mean of three ± S.D.; negative control

“Control-mAb (omalizumab, anti-IgE) (antibody)” was tested, and the % internalized/100000 cells (% internalized/100000 cells) was 0.01.
